Data on three molecules can be found in patent US20250170129A1, “SENOTHERAPEUTIC AGENTS AND ALPHA-KLOTHO POLYPEPTIDES” (Mayo Foundation for Medical Education and Researc, priority 2022, published 2025).

Assay [1] has as its system α-Klotho. Kind of assay: Senolytics in naturally-aged mice, α-Klotho in urine, kidney, brain. The class given is in vivo, mouse. The note with it: naturally-aged male mice 28-29-month-old, oral, vs vehicle (FIG. 4A).
Experimental: Wild-type C57BL/6 mice were randomly assigned to D+Q, Fisetin (F), or vehicle treatments. Treatments were started at age 26-27 months for old animals, and for DIO mice after 7-8 months of high fat-feeding beginning at 4 months of age. Mice were treated every 20 days with D+Q, F, or vehicle by oral gavage for 3 consecutive days in each of 3 cycles over 2 months (9 doses in total).
Assay [2] concerns α-Klotho. Put plainly: Senolytics in mice transplanted with senescent preadipocytes, urinary α-Klotho. The note with it: young mice transplanted i.p. with senescent cells, treated after 3 months (FIG. 4C). It counts as in vivo, mouse. How it is done: FIGS. 4A-4D. Senolytics increase urinary and kidney α-Klotho in old or obese mice. FIG. 4A) Naturally-aged male mice (28-29-month-old, n=10 in each group) were treated with vehicle, Dasatinib plus Quercetin (D+Q), or Fisetin. Urinary α-Klotho was measured by ELISA and expressed as a function of creatinine. One-way ANOVA: F=6.39; p<0.0^5, R^2=0.30; *p=0.02, **p<0.01. FIG. 4B) DIO mice (male, 10-month-old, n=8) were treated with vehicle or D+Q and urinary α-Klotho was assayed by ELISA and expressed as a function of creatinine. Unpaired T test; **p<0.01. FIG. 4C) Six-month-old male mice (n=6 in each group) were transplanted i.p. with senescent preadipocytes. After 3 months, they were treated with vehicle, D+Q, or Fisetin. Urinary α-Klotho was assayed by ELISA and expressed as a function of creatinine. One-way ANOVA and post hoc Tukey's tests: Kruskal-Wallis statistic=10.19; *p=0.02, **p<0.01. FIG. 4D) Kidney α-Klotho protein was also assayed in the same transplanted mice by Western blotting. One-way ANOVA: F=24.24; p<0.001, R^2=0.83; ***p<0.001. […]
α-Klotho was assayed by ELISA in 1:100 diluted mouse urine (IBL America, #27601). […] Urine α-Klotho measurements are expressed as a function of urine volume, creatinine (R&D Systems, #KGE005), and/or cystatin C (R&D Systems, #MSCTC0).

The test system of assay [3] is α-Klotho. Put plainly: Senolytics on non-senescent human astrocytes, α-Klotho Western blot and qPCR. The note with it: Dasatinib (200 nM) plus Quercetin (10 μM) or Fisetin (10 μM), 48 hours. It counts as cell-based. The protocol:
FIGS. 11A-11C. […] Non-senescent human astrocytes were treated with vehicle, Dasatinib (200 nM) plus Quercetin (10 μM), or Fisetin (10 μM) for 48 hours. FIG. 11A) α-Klotho was assayed by Western blotting with GAPDH as the loading control. FIG. 11B) α-Klotho mRNA was assayed by qPCR. FIG. 11C) Non-senescent human adipose progenitor cells were treated with Dasatinib (500 nM) plus Quercetin ([…]) or vehicle for 48 hours. α-Klotho mRNA was assayed by qPCR.

The test system of assay [4] is α-Klotho. Put plainly: Recombinant SASP factor treatment of non-senescent HKEs, α-Klotho qPCR. The note with it: non-senescent HKEs treated with recombinant protein (FIG. 1D). The class given is cell-based, human. From the text: (§1) FIGS. 1A-1F. Senescent cell conditioned medium decreases α-Klotho; blocking particular SASP factors with neutralizing antibodies partially restores α-Klotho. FIGS. 1A-1C) Conditioned media (CM) collected from senescent or non-senescent (FIG. 1A) human primary kidney endothelial cells (HKEs; one-way ANOVA: F=19.10, p<0.0001, R^2=0.89; n=3; ****p<0.0001); (FIG. 1B) human umbilical vein endothelial cells (HUVECs; one-way ANOVA: F=3.02, p=0.02, R^2=0.58, n=3; *p=0.02, **p=0.01); or (FIG. 1C) human brain astrocytes (HBAs; one-way ANOVA: F=7.93, p=0.02, R^2=0.66; n=5; ***p<0.001, *p=0.03) were applied to non-senescent HKEs, HUVECs, or HBAs, respectively, with or without antibodies against PAI-1, CXCL1, IL-6, activin A, TNF-α, IL-1α, IL-1β, or IL-18 for 48 hours. α-Klotho mRNA was assayed by qPCR. Means SEM. FIGS. 1D-1F) Primary HKEs (FIG. 1D; n=4), HUVECs (FIG. 1E; n=4), or HBAs (FIG. 1F; n=4) were treated with recombinant activin A or IL-1α. α-Klotho was assayed by qPCR 24 hours after treatments. Means±SEM; unpaired T-tests; ***p<0.001, ****p<0.0001. […]
(§2) Each cDNA sample was generated by reverse transcription using 1 μg RNA following the manufacturer's protocol (Thermo Fisher Scientific). […] Data were analysed by the ΔΔCt method.
On the technique in general: Real-time PCR tracks product formation cycle by cycle.

The test system of assay [5] is α-Klotho. Put plainly: Recombinant SASP factor treatment of non-senescent HUVECs, α-Klotho qPCR. The class given is cell-based, human. The note with it: non-senescent HUVECs treated with recombinant protein (FIG. 1E).
Text: as §1, §2

Assay [6] concerns α-Klotho. Put plainly: Recombinant SASP factor treatment of non-senescent HBAs, α-Klotho qPCR. The conditions noted are these: non-senescent HBAs treated with recombinant protein (FIG. 1F). The class given is cell-based, human.
Text: as §1, §2

For `O=c1c(O)c(-c2ccc(O)c(O)c2)oc2cc(O)ccc12` [F, Fisetin], the “urine α-Klotho (ELISA, function of creatinine)” value with α-Klotho [1] was “increased”. Moreover, the “urinary α-Klotho (ELISA, function of creatinine)” value in the assay with α-Klotho [2] is “increased”. Besides, in the assay with α-Klotho [3], the “α-Klotho (Western blotting, mRNA qPCR)” value is “did not increase”.

B1: IL-1α: recombinant human IL-1α protein (R&D Systems, #00-LA-010) (protein, UniProt P01583 113-271, looked up)
Interleukin-1 alpha: SAPFSFLSNVKYNFMRIIKYEFILNDALNQSIIRANDQYLTAAALHNLDEAVKFDMGAYKSSKDDAKITVILRISKTQLYVTAQDEDQPVLLKEMPEIPKTITGSETNLLFFWETHGTKNYFTSVAHPNLFIATKQDYWVCLAGGPPSITDFQILENQA
As for B1, the “expression of α-Klotho (qPCR)” value with α-Klotho [4], in the assay on α-Klotho [5] and in the assay with α-Klotho [6] was “decreased expression of α-Klotho” throughout.

B2: recombinant activin A: recombinant human activin A (R&D Systems, #338-AC) (protein, UniProt P08476 311-426, looked up)
Inhibin beta A chain: GLECDGKVNICCKKQFFVSFKDIGWNDWIIAPSGYHANYCEGECPSHIAGTSGSSLSFHSTVINHYRMRGHSPFANLKSCCVPTKLRPMSMLYYDDGQNIIKKDIQNMIVEECGCS
On to B2, for which the “expression of α-Klotho (qPCR)” value in the assay on α-Klotho [4], in the assay with α-Klotho [5] and in the assay on α-Klotho [6] was “decreased expression of α-Klotho” each time.
